B1: TRN0012 antibody (antibody, V domains shown)
VH: EVQLVQSGAEVKKPGESLRISCQGSGYTFTNYWIGWVRQMPGKGLEWMGIVYPGDSDTRYSPSFQGQITISADKSISTAYLQWNNLKASDTGMYYCATQQSNPYDSGSYWYFDSWGQGTLVTVSS
VL: DIVMTQSPPSLSASIGDRVTITCRASQGIRNFLAWYQQKPGKVPKLLIYAASTLQSGVPSRFSGSGSGTDFTLTISSLQPEDVATYYCQKYFSAPPDFGQGTRLEIK
B2: TRN0010 antibody (antibody, V domains shown)
VH: QVQLQESGPGLVKPSETLSLRCTVSGGSISSYYWSWFRQPPGKGLEWIGYVHYSGSTNYNPSLKSRFTLSVDTSKSQFSLRLRSVTAADTAIYYCARDKYQTDVSDIWGQGTVVTVSS
VL: DIQMTQSPGTLSLSPGERATLSCRASQSITSSFLAWYQQKPGQAPRLLIYGASSRATGIPDRFSGSGSGTDFILTISRLEPEDFAVYYCQQYDTSRTFGQGTTVEIK

Target: tetanus toxin (Clostridium tetani, UniProt P04958 2-1315)
Sequence (P04958 2-457 limits assumed, chain 1 of 2): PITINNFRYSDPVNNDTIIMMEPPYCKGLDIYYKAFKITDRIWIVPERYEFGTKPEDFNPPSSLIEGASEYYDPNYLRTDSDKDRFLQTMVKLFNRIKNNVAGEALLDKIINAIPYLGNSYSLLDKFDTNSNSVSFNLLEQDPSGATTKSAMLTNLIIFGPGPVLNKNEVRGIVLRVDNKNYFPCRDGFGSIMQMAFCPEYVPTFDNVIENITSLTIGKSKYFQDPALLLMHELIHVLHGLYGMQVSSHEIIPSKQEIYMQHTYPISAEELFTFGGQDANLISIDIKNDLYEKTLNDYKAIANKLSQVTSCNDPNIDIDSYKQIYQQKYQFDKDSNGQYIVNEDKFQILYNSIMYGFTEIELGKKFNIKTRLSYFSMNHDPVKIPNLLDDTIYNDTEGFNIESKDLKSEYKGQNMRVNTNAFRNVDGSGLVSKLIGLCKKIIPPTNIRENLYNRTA
Sequence (P04958 458-1315 limits assumed, chain 2 of 2): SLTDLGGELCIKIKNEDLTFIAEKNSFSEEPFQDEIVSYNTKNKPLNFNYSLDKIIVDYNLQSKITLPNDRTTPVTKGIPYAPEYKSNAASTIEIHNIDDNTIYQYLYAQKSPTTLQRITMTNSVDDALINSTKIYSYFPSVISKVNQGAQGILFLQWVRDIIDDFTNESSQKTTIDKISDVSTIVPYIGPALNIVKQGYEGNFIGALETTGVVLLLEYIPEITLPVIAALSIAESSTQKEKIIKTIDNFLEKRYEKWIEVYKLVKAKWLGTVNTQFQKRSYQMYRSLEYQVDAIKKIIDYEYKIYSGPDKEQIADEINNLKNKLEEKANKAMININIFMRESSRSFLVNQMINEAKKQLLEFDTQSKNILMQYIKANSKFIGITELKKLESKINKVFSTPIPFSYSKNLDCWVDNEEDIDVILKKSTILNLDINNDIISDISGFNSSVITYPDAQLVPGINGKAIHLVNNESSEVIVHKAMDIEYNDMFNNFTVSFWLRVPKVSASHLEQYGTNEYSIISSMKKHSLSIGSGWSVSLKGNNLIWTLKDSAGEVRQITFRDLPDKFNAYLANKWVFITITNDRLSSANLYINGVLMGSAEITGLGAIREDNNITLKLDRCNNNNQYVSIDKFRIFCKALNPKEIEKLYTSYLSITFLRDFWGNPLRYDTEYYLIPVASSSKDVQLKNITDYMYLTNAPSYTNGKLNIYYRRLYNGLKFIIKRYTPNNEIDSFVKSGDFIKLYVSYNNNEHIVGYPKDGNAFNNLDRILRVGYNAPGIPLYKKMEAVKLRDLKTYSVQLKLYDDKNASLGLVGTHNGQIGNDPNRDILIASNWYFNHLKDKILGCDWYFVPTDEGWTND

| Binder | Kd | koff | kon |
| --- | --- | --- | --- |
| B1 | 4.07 nM | 0.000328 s⁻¹ | 80600 M⁻¹ s⁻¹ |
| B2 | 3.68 nM | 0.000153 s⁻¹ | 41500 M⁻¹ s⁻¹ |
